Reference: patent publication US20140256614

System: MK2-activating peptide (transduction domain YARAAARQARA coupled to a Kaposin-derived region)

**Q.** What does the source list for “MK2 (endogenous, in rat pulmonary endothelial cells, RPMEC)”?
**A.** HSP27 phosphorylation in RPMEC after MK2 siRNA knock-down against control siRNA: MK2 siRNA reduced the level of MK2 in the cells and blocked the activity of the MK2-activating peptide; phosphorylated HSP27 by immunoblot, time course at 50 µM peptide, RPMEC: significant MK2 activation was observed by 15 minutes of treatment
